In PMC8513623:

Key:
[1] = molecular target: Bin1b SH3 domain (zebrafish), N-terminally His-tagged (zebrafish); assay: ITC
[2] = molecular target: Full-length zebrafish Cavin4b (Cavin4b-FL), His-ubiquitin tagged (zebrafish) (UniProt Q5PQY9); assay: ITC

“Chikungunya virus (CHIKV) proline-rich peptide” was tested. Which Kd [1] did it give?
Its Kd is 0.0889 µM.

Which Kd [1] does the source give for “Cavin4b PRD peptide (zebrafish Cavin4b proline-rich peptide) (from UniProt Q5PQY9 271-286)” here?
The Kd was 61.7 µM.

With “Bin1b SH3 domain (zebrafish), N-terminally His-tagged (domain or fragment)” as the substance, how does the Kd [2] read?
Its Kd is 55.9 µM.
